No end group written: not given here.

Here are results for five sequences from patent US20150258192A1, “COMPOSITIONS AND METHODS FOR PREVENTING OR TREATING CHRONIC LUNG ALLOGRAFT DYSFUNCTION (CLAD) AND IDIOPATHIC PULMONARY FIBROSIS (IPF)” (priority 2014, published 2015).

The target in one test is PAK3(h) (Homo sapiens, UniProt O75914). The test is described as follows: Kinase Profiling Assay. Format: biochemical. Conditions: peptide 100 μM. Summed up:
(§1)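 Duplicate wells; [radiolabeled] ATP phosphate onto cationic substrate; filter capture (negatively charged membrane); scintillation count; % of 100% activity control. Selectivity screen of MK2 peptide inhibitors, 266 human kinases.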

The next test concerns the target FGFR1(V561M)(h) (Homo sapiens, UniProt P11362, V561M). In words: Kinase Profiling Assay. The format is biochemical. The note with it: peptide 100 μM. Summed up: as §1
The target of a further test is T1, IR(h), activated (Homo sapiens, UniProt P06213).
T1 construct: purchased Millipore
T1 sequence (P06213 1005-1310 limits assumed): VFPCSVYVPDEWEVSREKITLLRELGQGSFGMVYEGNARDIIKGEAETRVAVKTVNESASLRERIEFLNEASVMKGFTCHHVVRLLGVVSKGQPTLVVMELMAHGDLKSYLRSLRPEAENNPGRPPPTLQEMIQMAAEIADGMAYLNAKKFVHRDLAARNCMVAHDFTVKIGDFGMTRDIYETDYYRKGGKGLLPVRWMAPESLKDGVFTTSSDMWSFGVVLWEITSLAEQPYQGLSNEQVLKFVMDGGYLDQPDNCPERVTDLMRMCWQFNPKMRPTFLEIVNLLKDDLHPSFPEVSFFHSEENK
The test is described as follows: Kinase Profiling Assay. Format: biochemical. Conditions: peptide 100 μM. Summed up:
as §1

The next test addresses T2, HIPK3(h) (Homo sapiens, UniProt Q9H422).
T2 construct: purchased Millipore
In words: Kinase Profiling Assay. The note with it: peptide 100 μM. Format: biochemical. Summed up:
as §1

The target of the next test is T3, MAPKAP-K3(h) (Homo sapiens, UniProt Q16644).
T3 construct: purchased Millipore
T3 sequence (Q16644 whole entry): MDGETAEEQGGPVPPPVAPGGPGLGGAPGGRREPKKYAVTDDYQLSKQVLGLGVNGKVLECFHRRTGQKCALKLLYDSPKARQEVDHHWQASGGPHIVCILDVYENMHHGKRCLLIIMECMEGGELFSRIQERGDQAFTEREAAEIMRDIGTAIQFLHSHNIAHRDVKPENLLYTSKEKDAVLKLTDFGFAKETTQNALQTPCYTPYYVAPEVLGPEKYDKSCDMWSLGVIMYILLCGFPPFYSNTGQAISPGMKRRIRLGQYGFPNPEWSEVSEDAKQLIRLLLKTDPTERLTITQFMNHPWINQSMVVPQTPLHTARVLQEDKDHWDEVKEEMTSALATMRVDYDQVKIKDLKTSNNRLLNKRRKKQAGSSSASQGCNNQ
In words: Kinase Profiling Assay. The note with it: peptide 100 μM. The format is biochemical. Summed up: as §1

A further test deals with EGFR(T790M)(h) (Homo sapiens, UniProt P00533, T790M). In words: Kinase Profiling Assay. The format is biochemical. Conditions: peptide 100 μM. Summed up:
as §1

For a further test, the target named is Abl(H396P)(h) (Homo sapiens, UniProt P00519, H396P). The test is described as follows: Kinase Profiling Assay. The note with it: peptide 100 μM. The format is biochemical. An outline of the steps: as §1
In the next test the target is T4, Aurora-A(h) (Homo sapiens, UniProt O14965).
T4 sequence (O14965 1-403): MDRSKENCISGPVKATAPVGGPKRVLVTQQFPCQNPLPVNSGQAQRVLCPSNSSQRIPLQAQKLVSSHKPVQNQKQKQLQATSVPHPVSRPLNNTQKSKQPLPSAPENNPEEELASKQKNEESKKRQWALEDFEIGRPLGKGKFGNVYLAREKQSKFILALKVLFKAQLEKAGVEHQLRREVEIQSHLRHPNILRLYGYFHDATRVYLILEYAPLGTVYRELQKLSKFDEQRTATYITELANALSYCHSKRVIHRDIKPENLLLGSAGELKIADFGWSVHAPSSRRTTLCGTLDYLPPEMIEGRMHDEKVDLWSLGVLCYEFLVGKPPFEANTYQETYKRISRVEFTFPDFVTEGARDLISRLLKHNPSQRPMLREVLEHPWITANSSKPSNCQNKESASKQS
In words: Kinase Profiling Assay. Format: biochemical. Conditions: peptide 100 μM. An outline of the steps:
as §1

Another test addresses Abl(M351T)(h) (Homo sapiens, UniProt P00519, M351T). The test is described as follows: Kinase Profiling Assay. Format: biochemical. The note with it: peptide 100 μM. An outline of the steps: as §1
The next test addresses T5, SGK(h) (Homo sapiens, UniProt O00141).
T5 construct: purchased Millipore
T5 sequence (O00141 1-431): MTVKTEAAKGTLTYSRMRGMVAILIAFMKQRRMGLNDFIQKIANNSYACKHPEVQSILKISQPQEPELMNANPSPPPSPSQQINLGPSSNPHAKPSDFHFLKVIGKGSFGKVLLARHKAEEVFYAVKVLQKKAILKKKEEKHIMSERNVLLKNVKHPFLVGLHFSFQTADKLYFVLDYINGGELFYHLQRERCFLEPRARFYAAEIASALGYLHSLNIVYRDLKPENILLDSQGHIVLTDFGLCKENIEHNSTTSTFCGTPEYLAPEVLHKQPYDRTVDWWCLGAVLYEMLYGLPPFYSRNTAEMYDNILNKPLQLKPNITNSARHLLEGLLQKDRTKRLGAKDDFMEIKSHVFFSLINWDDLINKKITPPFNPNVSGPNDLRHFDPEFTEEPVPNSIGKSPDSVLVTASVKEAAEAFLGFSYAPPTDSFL
In words: Kinase Profiling Assay. Format: biochemical. Conditions: peptide 100 μM. An outline of the steps:
as §1

Another test addresses T6, STK33(h) (Homo sapiens, UniProt Q9BYT3).
T6 construct: purchased Millipore
In words: Kinase Profiling Assay. The format is biochemical. Conditions: peptide 100 μM. Summed up: as §1

For the next test, the target named is CK1γ3(h) (Homo sapiens, UniProt Q9Y6M4). The test is described as follows: Kinase Profiling Assay. Conditions: peptide 100 μM. The format is biochemical. Summed up:
as §1

The target of another test is T7, Lck(h) (Homo sapiens, UniProt P06239).
T7 construct: purchased Millipore
T7 sequence (P06239 whole entry): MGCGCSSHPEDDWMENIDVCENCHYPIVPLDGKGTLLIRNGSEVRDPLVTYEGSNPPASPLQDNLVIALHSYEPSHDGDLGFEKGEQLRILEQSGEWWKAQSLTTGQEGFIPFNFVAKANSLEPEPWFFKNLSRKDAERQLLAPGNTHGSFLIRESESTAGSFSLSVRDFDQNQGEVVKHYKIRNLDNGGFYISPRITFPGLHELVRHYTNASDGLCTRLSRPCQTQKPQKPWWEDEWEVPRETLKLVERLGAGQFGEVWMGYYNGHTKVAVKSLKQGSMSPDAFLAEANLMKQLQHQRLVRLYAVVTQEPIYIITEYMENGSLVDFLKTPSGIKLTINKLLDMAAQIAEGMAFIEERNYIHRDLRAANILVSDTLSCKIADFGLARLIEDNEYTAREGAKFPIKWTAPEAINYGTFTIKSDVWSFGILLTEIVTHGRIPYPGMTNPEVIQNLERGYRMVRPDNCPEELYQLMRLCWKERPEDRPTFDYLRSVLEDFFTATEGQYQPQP
The test is described as follows: Kinase Profiling Assay. The format is biochemical. The note with it: peptide 100 μM. Summed up:
as §1

The target in the next test is PAR-1Bα(h) (Homo sapiens, UniProt Q7KZI7). The test is described as follows: Kinase Profiling Assay. Format: biochemical. Conditions: peptide 100 μM. Summed up:
as §1

Another test deals with PKA(h) (Homo sapiens, UniProt P17612). The test is described as follows: Kinase Profiling Assay. The format is biochemical. Conditions: peptide 100 μM. Summed up: as §1
Another test addresses PDGFRα(D842V)(h) (Homo sapiens, UniProt P16234, D842V). In words: Kinase Profiling Assay. The format is biochemical. Conditions: peptide 100 μM. Summed up: as §1
The next test has as its target CK2α2(h) (Homo sapiens, UniProt P19784). In words: Kinase Profiling Assay. Conditions: peptide 100 μM. The format is biochemical. An outline of the steps:
as §1

For another test, the target named is T8, IGF-1R(h) (Homo sapiens, UniProt P08069).
T8 construct: purchased Millipore
In words: Kinase Profiling Assay. The note with it: peptide 100 μM. Format: biochemical. Summed up: as §1

The next test addresses Tie2(R849W)(h) (Homo sapiens, UniProt Q02763, R849W). In words: Kinase Profiling Assay. Format: biochemical. The note with it: peptide 100 μM. Summed up: as §1
A further test concerns the target T9, GRK5(h) (Homo sapiens, UniProt P34947).
T9 construct: purchased Millipore
The test is described as follows: Kinase Profiling Assay. The note with it: peptide 100 μM. The format is biochemical. An outline of the steps:
as §1

The subject of test [1] is human fetal lung fibroblasts (IMR-90). In words: TGF-β-mediated fibronectin expression. Conditions: pre-treated 1 h, TGF-β1 (2 ng/ml) 72 h, conditioned media. The format is cell-based. The method, then:
Fibronection was measured as secreted fragments in the conditioned media. Equal amounts (14 μg) of total proteins from the conditioned media were loaded in each lane.

Test [2] concerns normal human fetal lung fibroblasts (IMR-90). In words: TGF-β-induced myofibroblast activation (α-SMA immunoblot). Conditions: pre-treated 1 h, TGF-β1 (2 ng/ml) 48 h. The format is cell-based. The source says: Cell lysates were immunoblotted against antibodies for α-SMA (a marker for myofibroblast activation) and GAPDH (loading control).
In general terms: In western blotting, separated proteins are transferred to a membrane and probed.

T6 sequence (Q9BYT3 whole entry): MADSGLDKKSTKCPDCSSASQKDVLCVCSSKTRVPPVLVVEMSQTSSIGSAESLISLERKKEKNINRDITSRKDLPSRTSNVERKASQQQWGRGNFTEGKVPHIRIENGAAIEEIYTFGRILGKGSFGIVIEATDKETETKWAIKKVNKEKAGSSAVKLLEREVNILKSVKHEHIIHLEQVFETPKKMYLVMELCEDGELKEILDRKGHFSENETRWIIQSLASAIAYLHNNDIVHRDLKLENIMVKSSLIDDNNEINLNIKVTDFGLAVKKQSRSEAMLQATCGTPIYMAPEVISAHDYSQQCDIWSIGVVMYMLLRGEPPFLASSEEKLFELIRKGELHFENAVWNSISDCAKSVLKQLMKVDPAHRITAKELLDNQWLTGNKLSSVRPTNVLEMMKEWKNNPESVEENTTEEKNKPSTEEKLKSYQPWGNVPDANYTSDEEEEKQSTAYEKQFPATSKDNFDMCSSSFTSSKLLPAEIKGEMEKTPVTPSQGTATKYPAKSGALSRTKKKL
FGFR1(V561M)(h), sequence (P11362 22-822 V561M): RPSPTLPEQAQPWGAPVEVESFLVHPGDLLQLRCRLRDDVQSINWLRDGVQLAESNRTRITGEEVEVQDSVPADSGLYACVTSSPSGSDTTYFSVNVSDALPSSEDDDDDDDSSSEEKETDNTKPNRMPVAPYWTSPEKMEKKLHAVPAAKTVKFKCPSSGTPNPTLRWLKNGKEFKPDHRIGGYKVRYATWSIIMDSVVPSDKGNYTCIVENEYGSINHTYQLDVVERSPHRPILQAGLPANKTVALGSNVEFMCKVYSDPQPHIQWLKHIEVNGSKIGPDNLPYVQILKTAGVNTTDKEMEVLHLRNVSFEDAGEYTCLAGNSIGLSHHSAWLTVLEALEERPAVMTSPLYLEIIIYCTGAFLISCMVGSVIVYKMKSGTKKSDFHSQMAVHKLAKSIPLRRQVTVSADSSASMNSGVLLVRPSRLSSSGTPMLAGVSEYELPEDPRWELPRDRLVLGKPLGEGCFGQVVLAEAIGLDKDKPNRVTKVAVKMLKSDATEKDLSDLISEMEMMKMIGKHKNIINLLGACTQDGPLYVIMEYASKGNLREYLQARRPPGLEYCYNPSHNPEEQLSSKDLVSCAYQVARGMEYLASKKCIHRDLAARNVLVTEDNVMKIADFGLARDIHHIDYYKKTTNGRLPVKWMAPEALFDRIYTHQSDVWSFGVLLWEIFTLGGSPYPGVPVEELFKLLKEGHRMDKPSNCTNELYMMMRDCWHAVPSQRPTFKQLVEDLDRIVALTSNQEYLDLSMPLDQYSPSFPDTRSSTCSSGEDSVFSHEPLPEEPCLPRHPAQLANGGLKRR
Tie2(R849W)(h), sequence (Q02763 23-1124 R849W): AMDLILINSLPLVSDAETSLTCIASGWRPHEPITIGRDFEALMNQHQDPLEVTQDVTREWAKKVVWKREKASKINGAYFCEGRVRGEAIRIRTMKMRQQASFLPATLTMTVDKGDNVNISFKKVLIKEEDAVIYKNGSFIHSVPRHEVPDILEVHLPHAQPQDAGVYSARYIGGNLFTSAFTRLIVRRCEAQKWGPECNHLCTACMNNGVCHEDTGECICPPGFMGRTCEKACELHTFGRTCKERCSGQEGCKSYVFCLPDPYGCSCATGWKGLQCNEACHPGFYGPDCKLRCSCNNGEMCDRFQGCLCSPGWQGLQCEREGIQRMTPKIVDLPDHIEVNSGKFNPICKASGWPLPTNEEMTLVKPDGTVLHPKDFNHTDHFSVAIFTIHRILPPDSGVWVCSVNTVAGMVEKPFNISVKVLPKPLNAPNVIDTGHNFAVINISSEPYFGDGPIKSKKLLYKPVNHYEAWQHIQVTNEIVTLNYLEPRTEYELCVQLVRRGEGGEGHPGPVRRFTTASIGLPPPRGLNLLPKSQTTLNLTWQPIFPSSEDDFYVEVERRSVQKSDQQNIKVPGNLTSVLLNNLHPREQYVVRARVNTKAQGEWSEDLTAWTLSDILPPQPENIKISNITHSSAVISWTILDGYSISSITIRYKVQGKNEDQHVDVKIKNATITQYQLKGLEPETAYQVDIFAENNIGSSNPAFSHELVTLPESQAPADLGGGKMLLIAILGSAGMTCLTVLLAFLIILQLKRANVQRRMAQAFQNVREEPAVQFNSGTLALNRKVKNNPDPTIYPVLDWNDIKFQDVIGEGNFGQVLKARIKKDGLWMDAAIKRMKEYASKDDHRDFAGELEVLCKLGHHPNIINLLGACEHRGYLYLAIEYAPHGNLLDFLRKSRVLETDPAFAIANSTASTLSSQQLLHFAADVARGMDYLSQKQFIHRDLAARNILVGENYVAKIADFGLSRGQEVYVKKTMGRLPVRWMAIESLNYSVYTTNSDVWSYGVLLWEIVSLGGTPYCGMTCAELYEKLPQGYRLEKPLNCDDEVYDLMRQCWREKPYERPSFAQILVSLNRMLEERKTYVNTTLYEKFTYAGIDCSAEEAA
T2 sequence (Q9H422 whole entry): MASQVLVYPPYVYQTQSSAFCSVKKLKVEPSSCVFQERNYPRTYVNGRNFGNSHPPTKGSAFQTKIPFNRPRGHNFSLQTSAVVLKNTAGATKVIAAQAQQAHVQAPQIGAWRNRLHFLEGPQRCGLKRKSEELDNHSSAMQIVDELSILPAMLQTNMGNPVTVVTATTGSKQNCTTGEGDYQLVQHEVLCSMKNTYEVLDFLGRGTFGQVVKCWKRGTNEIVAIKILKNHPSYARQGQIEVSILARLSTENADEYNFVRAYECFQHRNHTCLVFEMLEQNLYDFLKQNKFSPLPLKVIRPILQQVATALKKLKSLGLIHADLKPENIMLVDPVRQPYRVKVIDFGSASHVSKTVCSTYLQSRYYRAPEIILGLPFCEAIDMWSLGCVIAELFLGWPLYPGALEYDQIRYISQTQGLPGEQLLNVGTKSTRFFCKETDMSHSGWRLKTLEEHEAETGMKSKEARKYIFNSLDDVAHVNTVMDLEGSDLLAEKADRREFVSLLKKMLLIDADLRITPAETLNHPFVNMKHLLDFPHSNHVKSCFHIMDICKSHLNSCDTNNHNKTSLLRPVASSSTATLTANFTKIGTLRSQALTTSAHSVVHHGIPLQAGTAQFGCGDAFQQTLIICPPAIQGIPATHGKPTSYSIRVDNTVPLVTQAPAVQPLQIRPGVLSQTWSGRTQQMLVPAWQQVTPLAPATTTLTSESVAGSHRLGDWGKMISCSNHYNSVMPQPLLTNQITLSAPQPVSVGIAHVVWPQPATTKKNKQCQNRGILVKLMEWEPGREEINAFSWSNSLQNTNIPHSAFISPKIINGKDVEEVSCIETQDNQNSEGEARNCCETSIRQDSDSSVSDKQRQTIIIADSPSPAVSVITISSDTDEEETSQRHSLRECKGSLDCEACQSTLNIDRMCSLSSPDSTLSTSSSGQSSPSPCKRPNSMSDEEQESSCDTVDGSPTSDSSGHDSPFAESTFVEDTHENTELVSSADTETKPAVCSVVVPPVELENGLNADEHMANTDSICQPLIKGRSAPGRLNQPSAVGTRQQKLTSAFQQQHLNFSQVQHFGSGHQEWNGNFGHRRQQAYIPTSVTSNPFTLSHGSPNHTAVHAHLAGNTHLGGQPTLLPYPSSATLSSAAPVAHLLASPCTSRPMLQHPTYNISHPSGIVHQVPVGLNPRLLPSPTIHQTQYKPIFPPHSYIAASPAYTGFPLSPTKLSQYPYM

For the sequence FAKLAARLYRKALARQLGVAA [MMI-0300], the “% activity” value with PAK3(h) is on record as 140%; with FGFR1(V561M)(h) it was 74%; in the test with IR(h), activated, 79%; with HIPK3(h), 93%; with MAPKAP-K3(h), 3%; with EGFR(T790M)(h), 100%. Besides, the “% activity” value with Abl(H396P)(h) is 101%; with Aurora-A(h), 92%; with Abl(M351T)(h) it was 90%; in the test with SGK(h), 48%; in the test with STK33(h), 45%; in the test with CK1γ3(h) it was 125%. Moreover, in the test with Lck(h), the “% activity” value is recorded as -2%.
Take “HRRIKAWLKKIKALARQLGVAA (Mammal) [MMI-0500]”: the “% activity” value is 97% with PAR-1Bα(h); 90% with IR(h), activated; 85% with HIPK3(h); 9% in the test with MAPKAP-K3(h); 118% with PKA(h); 170% with PDGFRα(D842V)(h). Also, the “% activity” value in the test with EGFR(T790M)(h) stood at 70%; with Abl(H396P)(h), 51%; in the test with Aurora-A(h), 110%; with Abl(M351T)(h), 61%; with SGK(h) it was 2%; with STK33(h) it was 16%. Besides, the “% activity” value in the test with Lck(h) amounted to 359%.
Turning to KAFAKLAARLYRKALARQLGVAA [MMI-0400], the “% activity” value with CK2α2(h) turned out to be 96%; with FGFR1(V561M)(h), 74%; with IR(h), activated, 59%; with IGF-1R(h) it was 90%; with MAPKAP-K3(h) it was 7%; with PDGFRα(D842V)(h), 118%. Further, the “% activity” value was 54% with SGK(h), 52% with STK33(h), 108% in the test with Tie2(R849W)(h) and 131% with GRK5(h).
For the sequence YARAAARQARAKALARQLGVAA [MMI-0100], the “% activity” value at FGFR1(V561M)(h) was 108%; on IR(h), activated, 127%; on MAPKAP-K3(h), 27%; on SGK(h) it was 128%; at STK33(h) it was 99%. In test [1], the “protein level of fibronectin” value is “decreases”. Also, in test [2], the “protein level of α-smooth muscle actin (α-SMA)” value is “decreases”.
Regarding “YARAAARQARAKALNRQLGVA (Mammal) [MMI-0200]”, the “% activity” value was 88% in the test with CK2α2(h); 50% with PAK3(h); 72% with FGFR1(V561M)(h); 110% in the test with PAR-1Bα(h); 49% with IGF-1R(h); 39% with MAPKAP-K3(h). The “% activity” value with PKA(h) stood at 110%; with STK33(h) it was 98%; in the test with CK1γ3(h), 96%; with Tie2(R849W)(h), 89%; with GRK5(h), 135%. In addition, the “protein level of fibronectin” value in test [1] is “no changes”. The “protein level of α-smooth muscle actin (α-SMA)” value in [2] is given as “no changes”.
